Test results reported in PMC6123443, “Selective Pressure for Biofilm Formation in Bacillus subtilis: Differential Effect of Mutations in the Master Regulator SinR on Bistability” (mBio, 2018).
Changes are numbered by the printed parent chain. Names may count otherwise.

T1: SinR K28T (Bacillus subtilis, UniProt P06533 1-111, K28T)
T1 sequence: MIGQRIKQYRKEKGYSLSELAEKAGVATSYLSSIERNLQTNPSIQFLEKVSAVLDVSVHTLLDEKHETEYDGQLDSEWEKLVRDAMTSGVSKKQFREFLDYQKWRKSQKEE

T2: SinR wild type (Bacillus subtilis, UniProt P06533 1-111)
T2 sequence: T1 sequence with T28K

T3: SinR S43A (Bacillus subtilis, UniProt P06533 1-111, S43A)
T3 sequence: T1 sequence with T28K, S43A

T4: SinR W104R (Bacillus subtilis, UniProt P06533 1-111, W104R)
T4 sequence: T1 sequence with T28K, W104R

T5: SinR A85T (Bacillus subtilis, UniProt P06533 1-111, A85T)
T5 sequence: T1 sequence with T28K, A85T

T6: SinR W104L (Bacillus subtilis, UniProt P06533 1-111, W104L)
T6 sequence: T1 sequence with T28K, W104L

B1: eps operator inverted-repeat SinR box duplex, 21 bp (FAM1721/C-1723) (dsDNA)
DNA 1: ATTGTTCTCTAAAGAGAACTT
DNA 2: AAGTTCTCTTTAGAGAACAAT
B2: SinI (natural protein, B. subtilis, UniProt P23308 1-57, looked up)
chain: MKNAKQEHFELDQEWVELMVEAKEANISPEEIRKYLLLNKKSAHPGPAARSHTVNPF
notes: SinI, antagonist of SinR, Bacillus subtilis; sinI gene amplified by PCR with primer pair G6/G7 and cloned into plasmid pC2; also called SinR antagonist SinI; source: E. coli BL21(DE3), purified (ANX ion exchange, size exclusion)
B3: SinR wild type (natural protein, B. subtilis)
chain: T1 sequence with T28K
notes: SinR, master regulator of biofilm formation, Bacillus subtilis; sinR allele amplified from chromosomal DNA with primer pair G8/G10 and cloned between NdeI and EcoRI of pET24a; monomer printed as 12.85 kDa; The printed monomer mass of 12.85 kDa fits the whole protein of 111 residues; No tag is named and purification was by heparin and size exclusion; also called wild-type SinR; source: E. coli …
B4: SinR^S43A (natural protein, B. subtilis)
chain: T1 sequence with T28K, S43A
notes: SinR, Bacillus subtilis, with S43A; allele amplified from chromosomal DNA of the suppressor mutant with primer pair G8/G10, cloned in pET24a (NdeI/EcoRI); Spontaneous suppressor allele isolated in the laboratory from a ymdB mutant; source: E. coli BL21(DE3), purified (heparin Sepharose, size exclusion)
B5: SinR^K28T (natural protein, B. subtilis)
chain: T1 sequence
notes: SinR, Bacillus subtilis, with K28T; allele amplified from chromosomal DNA of the suppressor mutant with primer pair G8/G10, cloned in pET24a (NdeI/EcoRI); Spontaneous suppressor allele isolated in the laboratory from a ymdB mutant; source: E. coli BL21(DE3), purified (heparin Sepharose, size exclusion)
B6: SinR^W104L (natural protein, B. subtilis)
chain: T1 sequence with T28K, W104L
notes: SinR, Bacillus subtilis, with W104L; allele amplified from chromosomal DNA of the suppressor mutant with primer pair G8/G10, cloned in pET24a (NdeI/EcoRI); Spontaneous suppressor allele isolated in the laboratory from a ymdB mutant; source: E. coli BL21(DE3), purified (heparin Sepharose, size exclusion)
B7: SinR^A85T (natural protein, B. subtilis)
chain: T1 sequence with T28K, A85T
notes: SinR, Bacillus subtilis, with A85T; allele amplified from chromosomal DNA of the suppressor mutant with primer pair G8/G10, cloned in pET24a (NdeI/EcoRI); Spontaneous suppressor allele isolated in the laboratory from a ymdB mutant; source: E. coli BL21(DE3), purified (heparin Sepharose, size exclusion)
B8: SinR^W104R (natural protein, B. subtilis)
chain: T1 sequence with T28K, W104R
notes: SinR, Bacillus subtilis, with W104R; allele amplified from chromosomal DNA of the suppressor mutant with primer pair G8/G10, cloned in pET24a (NdeI/EcoRI); Spontaneous suppressor allele isolated in the laboratory from a ymdB mutant; source: E. coli BL21(DE3), purified (heparin Sepharose, size exclusion)

What was measured:
SinR K28T = molecular target: T1, SinR K28T; assay: fluorescence polarization; no polarization change up to 20 uM protein; 10 mM Tris-HCl pH 8.0, 100 mM NaCl, 1 mM EDTA; 10 nM labeled duplex, SinR diluted from 20 uM; temperature not stated; conditions: protein: recombinant; tags: none (pET24a, native stop codon in primer G10); chain copies: 4; label: 5'-fluorescein (FAM) on strand 1; blunt
SinR wild type = molecular target: T2, SinR wild type; assay: fluorescence polarization; 10 mM Tris-HCl pH 8.0, 100 mM NaCl, 1 mM EDTA; 10 nM labeled duplex, SinR diluted from 20 uM; temperature not stated; conditions: protein: recombinant; tags: none (pET24a, native stop codon in primer G10); chain copies: 4; label: 5'-fluorescein (FAM) on strand 1; blunt
SinR S43A = molecular target: T3, SinR S43A; assay: as above; conditions: protein: recombinant; tags: none (pET24a, native stop codon in primer G10); chain copies: 4; label: 5'-fluorescein (FAM) on strand 1; blunt
SinR W104R = molecular target: T4, SinR W104R; assay: as above; conditions: protein: recombinant; tags: none (pET24a, native stop codon in primer G10); chain copies: 2; label: 5'-fluorescein (FAM) on strand 1; blunt
SinR A85T = molecular target: T5, SinR A85T; assay: as above; conditions: protein: recombinant; tags: none (pET24a, native stop codon in primer G10); chain copies: 4; label: 5'-fluorescein (FAM) on strand 1; blunt
SinR W104L = molecular target: T6, SinR W104L; assay: as above; conditions: protein: recombinant; tags: none (pET24a, native stop codon in primer G10); chain copies: 2; label: 5'-fluorescein (FAM) on strand 1; blunt
SinR^S43A = molecular target: B4; assay: fluorescence polarisation; displacement of fluorescein-labelled 21-bp operator DNA (10 nM) from 5 µM SinR by SinI titrated from 50 µM to 10 nM; 10 mM Tris-HCl pH 8.0, 100 mM NaCl, 1 mM EDTA; qualitative; conditions: both partners purified
SinR^W104L = molecular target: B6; assay: as above; conditions: both partners purified
SinR^W104R = molecular target: B8; assay: as above; conditions: both partners purified
SinR^A85T = molecular target: B7; assay: as above; conditions: both partners purified
[1] = molecular target: the molecule itself; assay: SEC-MALS; SinR proteins at 5 mg/ml (equivalent to 400 µM), 150 µl on Superdex 200 Increase 10/300 GL, 50 mM Tris-HCl pH 8.0, 250 mM NaCl, 0.5 ml/min; refractive index at 25°C

Binder: B1
binding result (SinR K28T): no binding | Kd (SinR wild type): 179 ± 24 nM | Kd (SinR S43A): 350 ± 81 nM | Kd (SinR W104R): 2580 ± 545 nM | Kd (SinR A85T): 852 ± 39 nM | Kd (SinR W104L): 1900 ± 298 nM

Binder: B2
binding result (SinR^S43A): binds | percent of SinR-bound DNA released by a 10-fold molar excess of SinI (SinR^W104L): ~60% | percent of SinR-bound DNA released by a 10-fold molar excess of SinI (SinR^W104R): ~60% | binding result (SinR^A85T): binds

Binder: B3
stoichiometry N [1]: 4

Binder: B4
stoichiometry N [1]: 4

Binder: B5
stoichiometry N [1]: 4

Binder: B6
stoichiometry N [1]: 2

Binder: B7
stoichiometry N [1]: 4

Binder: B8
stoichiometry N [1]: 2
